Measurements from the DeepSol protein solubility set.

Assay: soluble on expression in E. coli; label from the status in PepcDB or PDB records

Sequence	soluble on expression in E. coli
MDLSRINTWKSKQLKSFLSSKDAFKADINGHSVLYYAIADNNVRLVCTLLNAGALKNLLDNEFPLHQAATLEDTKIVKILLFSGMDDSQFDDKGNTALYYAVDSGNMQTVKLFVKKNWRLMFYGKTGWKTSFYHAVMLNDVSIVSYFLSEIPSPFDLAILLSCIHTTIKNGHVDMMILLLDYMTSTNTNSLLFIPDIKLAIDNKDIEMLQALFKYDINIYSVNLENVLLDDAEIAKMIIEKHVEYKSDSYTKDLDDVKNNKLDEIISKNEELRLMYVNYVRKNY	not soluble
MSLGQSKVVYLNTHSTSSAGVETLNELCRLAEPGLETMLRQALDQVDDALFDRAERAANNADQALFFATMRQVRMSRRMVVQTFTQEMESAFSRLTQPHSSQTQEPAATAREDYSLELMDETVVEERVAAETVVGKLRTRSVFPLAQLQSRLDYLVVERKVDERNNPLDPRQVVDAFAVAMERLNIEIQPKLIIFKLFEKQALRQLPALYEAANRLLIDAGIMPKLRATGEPLVANEDRVQAPESGHQTSVDSEADTLTGNGSATLELLQGLLAQARGGNQPVPSTARCAGGASHSDLVQALSALQQQPRFANNETGGAQPFAAEELKALLGSALFVAPGGLPQPIERAADDTIDIVSMLFDIILDDSRLAPSIKAVIARLQIPVLKVAMLDRSFFNSRQHPARALINELAHAAMGWVEPENPSADPLYRKMNEVMNRILEGFEEDIVLFEQVLQDFRLFLEQERERAQTVEARTCQAAEGKAKVEDARERVQAEIERRLRGGSVPSVVHQILEGPWFKVLFITCVKDGPQGAVWESQLELMDRLIWSVQPNADPERRQDVLARIPALLNDLREGLNAILYNPFEMTRLFEELEAEHIRCLSAPPADLSDNTVNVEQGSEDESAFAQEGSSYDCDEPSVAAEPPQLTEEQCLREECLQRLVRVDLGTWFEFSTDAGRQLRAKLSARLNGGRRLIFVNRAGFKLADKKTEEVAADLSSGKAFILDHNMLFDKALEQVITNLRDLRVEQAEGHHHHHH	not soluble
DSMADITACPGTDTCNLGISSSTGLSVEIEKMLLEEFPDTVFNKNIKIKISGCMNACGQHTIGNIGFHGMSIKNGTNVLPAMQVMLGGGLEPDGTGTIADKILKLPTRRCVEAVREILTDYDTNATEGEYFNDYYRRQVAAEKMYFYKLLKPLSDLETLTELDYIDL	not soluble
ADVAIVGGGFVGLWTAITLKQLEPDARVLLLEQDVCGGGASGRNGGFVMSWWPKIGTLLGFCSEAQARFLGESAERAIQELGEFCARHDIDAHFQQKGWLWTATTAHHLDAWNDTLAACERLGVSPFERLDASEVARRTGSPVHLAGVFERSNATVQPALLVQGMRRVALALGVEIHERCGVSQIVPGQPAQLLSAGARVQAKAVVLATNAWSAALPRLSRLIVPVNSSIAVTEAIPQRLERIGWTGGEAITDSQLMVDYYRTTRDGRIAFGKGTGALSYGSRIGRVFDVDRESLALTEADFRRTYPSLGDIPLVDGWSGPIDRTYDSLPVFGRLHENIHYGIGWSGNGVGPSRLGGRILASLALGRDDPWSR	not soluble
GPGPSRPSASWQNSVSERPPYSYMAMIQFAINSTERKRMTLKDIYTWIEDHFPYFKHIAKPGWKNSIRHNLSLHDMFVRETSANGKVSFWTIHPSANRYLTLDQVFKPLDPGSPQLPEHLESQQKRPNPELRRNMTIKTELP	soluble
MSLVGGFPHHPVVHHEGYPFAAAAAAAAAAAASRCSHEENPYFHGWLIGHPEMSPPDYSMALSYSPEYASGAAGLDHSHYGGVPPGAGPPGLGGPRPVKRRGTANRKERRRTQSINSAFAELRECIPNVPADTKLSKIKTLRLATSYIAYLMDLLAKDDQNGEAEAFKAEIKKTDVKEEKRKKELNEILKSTVSSNDKKTKGRTGWPQHVWALELKQ	not soluble
MALASAADFFAQQHPSYGRHIGQLYERAVKNDLSFTHTFVNPQVNRSLGYMEEDGEPIAAKVVRETADGLIIKGARLLATQGGMTDELLVLPAGGALLGDEYMYAFSIPSNAPGLKFVCRPSLAAGALVFDAPLSSRFDEIDAMVVFDEVLVPWDRVFFYKNAWFAKEMEEETHLAIMLLHQVLARRIVKTEFFLGTVELLSEAIQIGGYQHVQEKIGEIAAALEALRGMLLASELHAKPDRRGTMVPDPAPLYAAAFLYPRLYPRFADIIQLLGASGLVCLPTEADFSSPLRPDLDRYLQAATLPAEQRVRLFRFAWDMAMSAFGTRQTLYERFFFGDPARFATTFYHRYDREACAEIVRQFLDSEQR	not soluble
MGSDKIHHHHHHMSMVSSGNYAEVEKVLTEYPYIAELADHLRDQKMKVIENLDSYVSLTIKNVERLGGHAYLAKDKEEARKIAGDLVGDNKTVVFSKTNVAYEIGLREYLESKHNEVWETDLGEYLIQISKGWPTHIVAPALGMTREDAAKAVKKIDPSINENSTIEDVVAAVRKFLMSKYVKADVGITGANAVAADSGAIALVENEGNIRIDTVMPQTHISITGIDKIVPTLRDALDEVMVQSAYAGLFPPTYINVTAGPSSTADIELRRVSPATGPKNFHLILLDDGRMDASKDEGLKEALLCIKCGRCYFSCPIYRVLGKEWVSTKSPYNGPTGVMWNYITNKDPWPASYCVHSGGCKEVCPMRINIPEVIKYIKYLGSKSL	not soluble
MVKVKIYYKDREWPPEYRKVLEKMKEIIDPVTGESILDSGVLAGLEVKGDTLKVWLKFESNAEYNILGSAAMAYSKIVGDIMEKFALVMFDKVYVYDLGNNPIGIFENKGNGRK	soluble
MNGGTFTTGKEKERAGIYFNFKTTAQERVSLSERGTVALPVASSWGEAKTFVSISSVEDLNKKVGLSIDDPSLLLLREAKKNAKTVLMYRLTEGVRASADIAEGVKATAVYGGTKGNDIIIRINQNVLDANSFDVTTYMDESEVDKQTVKKAEELTANGYVTFTGTGDLSSTIPLTGSEGDTAAETLNASAGIRLSGGTDKAPVNSDYTDFLAAAETESFDVIALPVAEGDQLKATFAAFIKRLRDGQGQKVQGVTANYAGDYEGIINVTEGVLLEDGTEVTPDKATAWVAGASAGATFNQSLTFVEYEGAVDVLHRLDHDTIVERLGKGEFLFTFDARDKSVSVEKDINSLVTFTAEKNKKFAKNKIVRVLDAVNNDLTRELKALIKSRKGSGSDIPASEDGLQYVKTMITQYMTTLQDAGGITGFDSDEDITISMNEDRDGFLIDLLYSLSTQQKNSTLMWRLEHHHHHH	soluble
MKIQLIAVGTKMPKWVEEGFQEYRRRFPHDMPLELVEITAGKRGKNADIARILQKEGEAMLAAVPKGNRIVTLDIPGKRWDTEELAVQLESWKLDGRDVSILIGGPEGLAPACKAAADQSWSLSPLTLPHPLVRVVMAESLYRAWSITTNHPYHRELEHHHHHH	soluble
MMTVLRSQIESILLVVDQPASVAALARATEAAPETVTSVLRSMAQEFEDRGSGIEVRESPEGWRLYTVKRNADVVEKFLLDGSHTKLSRAALETLAVVAYRQPATRAQVAAVRGVNVDGVMRTLQLRGLIREVAINPGTEGVNGSAHRYETTELFLDLLGIDSLERLPDLAPLLPDIDSIDEYF	not soluble
MGSDKIHHHHHHMNVINETANVLKLETGSVTSAKGFSAVGIHTGVKRKRKDLGAIVCEVPASSAAVYTLNKVQAAPLKVTQESIAVEGKLQAMIVNSGIANACTGKRGLDDAYTMRAVGAETFHIPEHYVAVTSTGVIGEFLPMDVITNGIRQLKPEATIEGAHAFNEAILTTDTVEKHTCYQTIVNGKTVTVGGVAKGSGMIHPNMA	soluble
MSLHGKLIQFHKFGNPKDVLQVEYKNIEPLKDNEVFVRMLVRPINPSDLIPITGAYAHRIPLPNIPGYEGVGIVENVGAFVSRELIGKRVLPLRGEGTWQEYVKTSADFVVPIPDSIDDFTAAQMYINPLTAWVTCTETLNLQRNDVLLVNACGSAIGHLFAQLSQILNFRLIAVTRNNKHTEELLRLGAAYVIDTSTAPLYETVMELTNGIGADAAIDSIGGPDGNELAFSLRPNGHFLTIGLLSGIQVNWAEIVTKAKVHANIFHLRHWNDEVSPYKWQETFRHLIRLVENEQLRFMKVHSTYELADVKAAVDVVQSAEKTKGKVFLTSYEGHHHHHH	soluble
MGLNIGDLLGSTPAKDQGCSRTCESQFCTIAPLLRYGKYCGILYSGCPGERPCDALDACCMVHDHCVDTHNDDYLNTMCNENLLSCIDRVSGATFPGNKCNVGQTASVIRGVIETAVFAGKILHKRDDGQ	soluble
PVLFLALPALAQERKKVGVVLSGGGAKGVAHIQALKVIEEAGIPIDYIVGTSMGSIIGGLYSIGYTPQQLDSMVRKQDWMFLLSDRVKRSAMSLNEREKSEKYVFSFPFTKSPKDAVSGGIIKGQNLANLFTELTVGYHDSVDFNKLPIPFACVSQNIVNGEQIVFHNGILATAMRASMAIPGVFTPVRKDSMILIDGGMINNYPVDVARSMGADIIIGVDVQNNLKGID	not soluble
MGTVHARSMDSYPMYGRDLGVNTDDMEVMEAVQETKQEVLENKDVVVQHVNIEGLGRTKEDYLGYEISDVFTARNLVEVMRKSHEARQRLLRLGIFRDVEVVIDISEGADALPNGLDVTFEVTELKRLTGSYNTMVGNNEGSMVLGIKLPNMLGRGEKLTFQFSYGTKETSYGLSFFKPQSGYFERNFTVNLYKVTGQFPWSSLKETDRGVSTELSLPLWMTDHTLKWEGVWRELGCLARSASFAVREESGHTLKSALSHTMVVDTRNSAILPRKGALLRINQELAGYTGGDANFLKEDVELQLNKQFIWGSVLSASLWGGMIYPLGAQPTSIADRFYLGGPTSVRGFGMYSIGPQSEGDYLGGEAYWAGGLHLYTPLPFRSNKGGLADLFRTHFFLNAGNICNLNYGEGPRAHLQKLAECIRWSYGAGIILRLGNIARLELNYCFPMGVQSGDRICDGVQFGAGIRFL	soluble
MPIKVKYYGNVVFASDAVCGQAENYATLKAMKEVGNYTISIQTFENAENVYPEEFLAKPVADEHYLTTEDGSVGIKGHYLDIVKELIEKDKVDIIFAGGKLGSLAKLAELTRPYGIPTLEHHHHHH	not soluble
FHLTTRNGEPHMIVSRQEKGKSLLFKTEDGVNMCTLMAMDLGELCEDTITYKCPLLRQNEPEDIDCWCNSTSTWVTYGTCT	soluble
MFTYSLNLKLKTDRNFFGPGVVEVLQKIQQTGSLNLAAKEMKMSYNKAWRIVRVAEEELSFPLIIKSVGGCNGGGSIVTDQGKELIDQYLLFEKKVYQQVEACFEEIFKEQDVVSEELK	not soluble
MGSDKIHHHHHHMIDPAGRTTAWEYDAYGSLLVQTLPDGSAVRTEFDLDHRPVCMTLIGGRQWGYEWNTFGNLLAQSDPSGAISRYTYDEYGQLVEHTGPRGASTRFDYHPDGNLAAQIDALGHRTQYRYDARGYLGEAIDALGQQSQYEYDRNGHLTRAIEPGGREIHCAYDADGNLSRHRDPMGHVTQMEYSALGQVSRRLAPDGTTVEYRYDTEEQLIGVVNERSELYALERDALGRIVVETDYWGQARRYRYGAAGELLCSTDPLGQTVEYRYDWLGRIVQKRVPHPEQDEALQIDSFAYDRHGDLVLAENPSCRVEFDYDAAGRMIEERQGDDFTIASDYDEAVTCPLR	not soluble
MGSDKIHHHHHHMTTSAVSIPMPSIPRRRRSPEDVLAAAPVPGPKKVLLAAPRGYCAGVDRAVIAVEKALEHYGPPVYVRKQIVHNVHVVSSLEEKGAIFVDETDEVPEGALVIFSAHGVSPAVVQSAEDRGLRTIDATCPLVTKVHREAVRFAKDDFDILLIGHDGHEEVEGTAGEAPEHIQIINGPHEVDKVTVRDPEKVIWLSQTTLSVDETMETVRLLKERFPTLQDPPSDDICYATTNRQVAIKKISPQADLVIVVGSANSSNSVRLVEVALEYGAKASYRVDFANEVDEAWFEGVATVGVTSGASVPEVLVKDVLRLLADYGYGTVEEVVTAEEDLLFSLPKELRATLKKSGDVTRALGGRGARA	not soluble
